Assays:
[1] = molecular target: purified bovine cation-independent mannose 6-phosphate receptor (CI-MPR) (bovine) (UniProt P08169); assay: plate assay: conditioned medium on immobilized bovine CI-MPR, bound enzyme by 4-MU activity
[2] = molecular target: purified bovine cation-independent mannose 6-phosphate receptor (CI-MPR) (bovine) (UniProt P08169); assay: plate assay: conditioned medium on immobilized bovine CI-MPR, bound enzyme by 4-MU activity, linear range points

UniProt P08169, sequence (P08169 45-2313 limits assumed): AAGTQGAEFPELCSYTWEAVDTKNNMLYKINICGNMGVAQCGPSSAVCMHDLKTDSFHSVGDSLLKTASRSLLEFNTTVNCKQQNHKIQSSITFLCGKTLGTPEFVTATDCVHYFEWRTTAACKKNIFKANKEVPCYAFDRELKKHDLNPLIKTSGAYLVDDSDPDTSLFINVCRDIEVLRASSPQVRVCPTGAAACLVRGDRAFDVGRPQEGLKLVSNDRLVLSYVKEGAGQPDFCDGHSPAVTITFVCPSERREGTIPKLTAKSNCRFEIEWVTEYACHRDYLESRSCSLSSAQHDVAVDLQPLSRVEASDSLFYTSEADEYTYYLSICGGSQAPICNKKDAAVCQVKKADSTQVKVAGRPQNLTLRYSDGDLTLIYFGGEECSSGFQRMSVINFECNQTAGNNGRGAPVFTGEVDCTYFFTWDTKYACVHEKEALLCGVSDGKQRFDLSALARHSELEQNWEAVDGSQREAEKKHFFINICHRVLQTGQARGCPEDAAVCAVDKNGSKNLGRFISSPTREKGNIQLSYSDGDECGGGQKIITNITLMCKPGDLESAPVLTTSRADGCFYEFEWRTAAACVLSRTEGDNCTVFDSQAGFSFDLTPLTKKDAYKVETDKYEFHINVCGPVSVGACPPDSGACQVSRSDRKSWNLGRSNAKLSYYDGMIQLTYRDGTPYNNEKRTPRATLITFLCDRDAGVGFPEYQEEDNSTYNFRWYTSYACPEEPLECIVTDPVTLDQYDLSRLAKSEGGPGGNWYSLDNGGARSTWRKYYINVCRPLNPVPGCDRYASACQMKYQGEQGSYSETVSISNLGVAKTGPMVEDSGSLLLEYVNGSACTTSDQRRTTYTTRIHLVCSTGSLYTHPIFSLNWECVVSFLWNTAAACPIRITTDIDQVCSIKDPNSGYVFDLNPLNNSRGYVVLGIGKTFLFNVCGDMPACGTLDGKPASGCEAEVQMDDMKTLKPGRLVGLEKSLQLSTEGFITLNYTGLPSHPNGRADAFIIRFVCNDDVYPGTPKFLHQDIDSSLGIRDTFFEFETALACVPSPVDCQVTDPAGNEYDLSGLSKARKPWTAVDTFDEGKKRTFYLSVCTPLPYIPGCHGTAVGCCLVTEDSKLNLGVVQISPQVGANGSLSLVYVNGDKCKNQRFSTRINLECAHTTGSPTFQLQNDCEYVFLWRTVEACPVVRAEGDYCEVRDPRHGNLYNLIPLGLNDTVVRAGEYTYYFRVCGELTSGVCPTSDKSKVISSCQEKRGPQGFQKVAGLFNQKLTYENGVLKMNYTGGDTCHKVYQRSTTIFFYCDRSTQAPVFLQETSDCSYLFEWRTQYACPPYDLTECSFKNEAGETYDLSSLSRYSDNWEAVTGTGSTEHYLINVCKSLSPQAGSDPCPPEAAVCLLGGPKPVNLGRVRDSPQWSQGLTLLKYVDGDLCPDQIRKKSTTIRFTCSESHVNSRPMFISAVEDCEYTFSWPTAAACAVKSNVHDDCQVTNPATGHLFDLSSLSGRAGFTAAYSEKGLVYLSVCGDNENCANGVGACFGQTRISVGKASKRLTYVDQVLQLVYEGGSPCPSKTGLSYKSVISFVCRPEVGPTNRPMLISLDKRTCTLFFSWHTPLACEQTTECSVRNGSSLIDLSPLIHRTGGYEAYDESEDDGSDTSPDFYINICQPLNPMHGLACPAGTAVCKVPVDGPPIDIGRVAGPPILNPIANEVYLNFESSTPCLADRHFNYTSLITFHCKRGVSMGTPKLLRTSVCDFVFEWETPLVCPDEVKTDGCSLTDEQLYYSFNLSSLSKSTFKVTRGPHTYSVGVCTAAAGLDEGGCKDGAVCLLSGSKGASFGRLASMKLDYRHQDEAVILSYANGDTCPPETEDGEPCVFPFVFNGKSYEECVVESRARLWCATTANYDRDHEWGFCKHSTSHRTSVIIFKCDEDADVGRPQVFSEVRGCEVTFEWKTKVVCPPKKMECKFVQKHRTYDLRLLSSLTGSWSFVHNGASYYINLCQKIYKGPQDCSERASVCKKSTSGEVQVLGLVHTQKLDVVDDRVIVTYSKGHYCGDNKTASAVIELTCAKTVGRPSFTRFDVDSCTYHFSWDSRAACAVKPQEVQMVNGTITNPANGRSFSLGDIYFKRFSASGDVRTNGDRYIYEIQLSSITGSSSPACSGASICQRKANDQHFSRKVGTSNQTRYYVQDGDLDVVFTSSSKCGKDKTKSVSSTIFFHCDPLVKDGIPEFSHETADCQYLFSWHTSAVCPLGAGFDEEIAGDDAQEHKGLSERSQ

Substance	fold of binding percentage against GLA sample [1]	overall binding percentage [1]	fold of percentage bound against GBA produced by endogenous phosphotransferase [1]	percentage of receptor binding [2]
human alpha-galactosidase (GLA) produced from bicistronic plasmid pLL51 in Expi293 cells (from UniProt P06280 32-429) (enzyme)	2 fold	62.1%	–	–
human acid beta-glucosidase (GBA) produced from bicistronic plasmid pLL11 (pCMV-hGBA-IRES-S1S3) in Expi293 cells (from UniProt P04062 40-536) (enzyme)	–	–	10 fold	44%
human acid beta-glucosidase (GBA) produced from GBA single expression plasmid in Expi293 cells (endogenous phosphotransferase) (from UniProt P04062 40-536) (enzyme)	–	–	–	4.5%

Second part, the substance after the results:

fold of binding percentage against GLA sample [1]	overall binding percentage [1]	fold of percentage bound against GBA produced by endogenous phosphotransferase [1]	percentage of receptor binding [2]	Substance
–	33.1%	–	–	human alpha-galactosidase (GLA) produced from GLA single plasmid in Expi293 cells (from UniProt P06280 32-429) (enzyme)
–	–	–	43%	human acid beta-glucosidase (GBA) produced by co-transfection of GBA plasmid and CMV-S1S3 plasmid in Expi293 cells (from UniProt P04062 40-536) (enzyme)

Reference: patent publication US20220380800A1
